According to IntAct's records for PubMed 18761085:

B1: Ras GTPase-activating protein 1 (Homo sapiens), P20936 (parent)
chain: MMAAEAGSEEGGPVTAGAGGGGAAAGSSAYPAVCRVKIPAALPVAAAPYPGLVETGVAGTLGGGAALGSEFLGAGSVAGALGGAGLTGGGTAAGVAGAAAGVAGAAVAGPSGDMALTKLPTSLLAETLGPGGGFPPLPPPPYLPPLGAGLGTVDEGDSLDGPEYEEEEVAIPLTAPPTNQWYHGKLDRTIAEERLRQAGKSGSYLIRESDRRPGSFVLSFLSQMNVVNHFRIIAMCGDYYIGGRRFSSLSDLIGYYSHVSCLLKGEKLLYPVAPPEPVEDRRRVRAILPYTKVPDTDEISFLKGDMFIVHNELEDGWMWVTNLRTDEQGLIVEDLVEEVGREEDPHEGKIWFHGKISKQEAYNLLMTVGQVCSFLVRPSDNTPGDYSLYFRTNENIQRFKICPTPNNQFMMGGRYYNSIGDIIDHYRKEQIVEGYYLKEPVPMQDQEQVLNDTVDGKEIYNTIRRKTKDAFYKNIVKKGYLLKKGKGKRWKNLYFILEGSDAQLIYFESEKRATKPKGLIDLSVCSVYVVHDSLFGRPNCFQIVVQHFSEEHYIFYFAGETPEQAEDWMKGLQAFCNLRKSSPGTSNKRLRQVSSLVLHIEEAHKLPVKHFTNPYCNIYLNSVQVAKTHAREGQNPVWSEEFVFDDLPPDINRFEITLSNKTKKSKDPDILFMRCQLSRLQKGHATDEWFLLSSHIPLKGIEPGSLRVRARYSMEKIMPEEEYSEFKELILQKELHVVYALSHVCGQDRTLLASILLRIFLHEKLESLLLCTLNDREISMEDEATTLFRATTLASTLMEQYMKATATQFVHHALKDSILKIMESKQSCELSPSKLEKNEDVNTNLTHLLNILSELVEKIFMASEILPPTLRYIYGCLQKSVQHKWPTNTTMRTRVVSGFVFLRLICPAILNPRMFNIISDSPSPIAARTLILVAKSVQNLANLVEFGAKEPYMEGVNPFIKSNKHRMIMFLDELGNVPELPDTTEHSRTDLSRDLAALHEICVAHSDELRTLSNERGAQQHVLKKLLAITELLQQKQNQYTKTNDVR
partner: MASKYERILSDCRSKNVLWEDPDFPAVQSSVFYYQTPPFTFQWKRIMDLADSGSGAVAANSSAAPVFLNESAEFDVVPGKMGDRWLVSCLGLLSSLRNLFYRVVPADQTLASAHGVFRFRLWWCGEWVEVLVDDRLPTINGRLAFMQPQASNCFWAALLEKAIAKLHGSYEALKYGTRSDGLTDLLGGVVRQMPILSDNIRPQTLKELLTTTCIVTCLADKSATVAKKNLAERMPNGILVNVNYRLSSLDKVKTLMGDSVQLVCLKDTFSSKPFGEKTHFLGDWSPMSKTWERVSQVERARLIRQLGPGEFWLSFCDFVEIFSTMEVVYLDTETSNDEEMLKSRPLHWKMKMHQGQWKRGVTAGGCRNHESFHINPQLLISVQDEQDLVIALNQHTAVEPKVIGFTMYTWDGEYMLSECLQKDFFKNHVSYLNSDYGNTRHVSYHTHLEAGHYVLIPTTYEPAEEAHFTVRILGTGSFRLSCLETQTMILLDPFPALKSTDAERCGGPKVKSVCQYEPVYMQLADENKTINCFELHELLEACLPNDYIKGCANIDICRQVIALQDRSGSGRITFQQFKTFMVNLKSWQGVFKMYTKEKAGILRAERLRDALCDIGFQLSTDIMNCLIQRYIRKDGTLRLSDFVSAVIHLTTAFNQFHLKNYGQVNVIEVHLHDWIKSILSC

Variants of: B1
Settings: with canc_drome CalpC

| effect of a mutation on the interaction | Variant |
| --- | --- |
| disrupting interaction | W317K |
